Measured values: US20200165335A1 (Seagen, published 2020)
Changes are numbered by the printed parent chain.

B1: humanized BR2-22a antibody HALF (antibody, V domains shown)
VH: QVQLVQSGAEVKKPGASVKVSCKASGYTFTDYYMHWVRQAPGQGLEWMGWIDPENGDTEYGPKFQGRVTMTRDTSISTAYMELSRLRSDDTAVYYCARHNAHYGTWFAYWGQGTLVTVSS
VL: DVVMTQSPLSLPVTLGQPASISCRSSQSLLHSSGNTYLEWYLQRPGQSPKPLIYKISTRFSGVPDRFSGSGSGTDFTLKISRVEAEDVGVYYCFQGSHVPYTFGGGTKVEIKR
notes: also called hLIV-22 HA + hLIV-22 LF
B2: humanized BR2-22a antibody HBLB (antibody, V domains shown)
VH: B1 VH with F29I, T30E, S77N
VL: B1 VL with L42Q, K50R, P51R
notes: Not the same molecule as HBLB of the BR2-14a series (hLIV14); also called hLIV-22 HB + hLIV-22 LB
B3: humanized BR2-22a antibody HBLF (antibody, V domains shown)
VH: B1 VH with F29I, T30E, S77N
VL: B1 VL
notes: also called hLIV-22 HB + hLIV-22 LF
B4: humanized BR2-22a antibody HCLC (antibody, V domains shown)
VH: B1 VH with R67K, V68A, R72A
VL: B1 VL with Y41F, K50R, P51R
notes: also called hLIV-22 HC + hLIV-22 LC
B5: humanized BR2-22a antibody HCLD (antibody, V domains shown)
VH: B1 VH with R67K, V68A, R72A
VL: B1 VL with Y41F, L42Q, P51R
notes: also called hLIV-22 HC + hLIV-22 LD
B6: humanized BR2-22a antibody HDLF (antibody, V domains shown)
VH: B1 VH with Y27L, A97T, R98V
VL: B1 VL
notes: also called hLIV-22 HD + hLIV-22 LF
B7: humanized BR2-22a antibody HELA (antibody, V domains shown)
VH: QVQLVQSGAEVKKPGASVKVSCKASGLNIEDYYMHWVRQAPGQGLEWIGWIDPENGDTEYGPKFQGKATMTADTSINTAYMELSRLRSDDTAVYYCTVHNAHYGTWFAYWGQGTLVTVSS
VL: B1 VL with Y41F, L42Q, K50R, P51R
notes: also called hLIV-22 HE + hLIV-22 LA
B8: humanized BR2-22a antibody HELC (antibody, V domains shown)
VH: B7 VH
VL: B1 VL with Y41F, K50R, P51R
notes: also called hLIV-22 HE + hLIV-22 LC
B9: humanized BR2-22a antibody HELE (antibody, V domains shown)
VH: B7 VH
VL: B1 VL with Y41F, L42Q, K50R
notes: also called hLIV-22 HE + hLIV-22 LE
B10: humanized BR2-22a antibody HFLF (antibody, V domains shown)
VH: B1 VH with Y27L, F29I, T30E, R98V
VL: B1 VL
notes: also called hLIV-22 HF + hLIV-22 LF
B11: humanized BR2-22a antibody HFLG (antibody, V domains shown)
VH: B1 VH with Y27L, F29I, T30E, R98V
VL: B1 VL with L42Q, K50R
notes: also called hLIV-22 HF + hLIV-22 LG
B12: humanized BR2-22a antibody HGLF (antibody, V domains shown)
VH: B1 VH with Y27L, F29I, T30E, S77N, R98V
VL: B1 VL
notes: also called hLIV-22 HG + hLIV-22 LF
B13: humanized BR2-22a antibody HELF (antibody, V domains shown)
VH: B7 VH
VL: B1 VL
notes: 15 backmutations; also called hLIV-22 HE + hLIV-22 LF; HELF historic control
B14: humanized BR2-22a antibody HELG (antibody, V domains shown)
VH: B7 VH
VL: B1 VL with L42Q, K50R
notes: also called hLIV-22 HE + hLIV-22 LG
B15: humanized BR2-14a antibody HELE (antibody, V domains shown)
VH: B7 VH with L27F, G61A, K63T, T97N, N100D
VL: DVVMTQSPLSLPVTLGQPASISCRSSQSIIRNDGNTYLEWFQQRPGQSPRLLIYRVSNRFSGVPDRFSGSGSGTDFTLKISRVEAEDVGVYYCFQGSHVPYTFGGGTKVEIKR
notes: also called hLIV-1 HE + hLIV-1 LE
B16: humanized BR2-14a antibody HDLF (antibody, V domains shown)
VH: B1 VH with Y27F, G61A, K63T, A97N, R98V, N100D
VL: B15 VL with F41Y, Q42L, R44K, R50K
notes: also called hLIV-1 HD + hLIV-1 LF
B17: humanized BR2-14a antibody HELA (antibody, V domains shown)
VH: B7 VH with L27F, G61A, K63T, T97N, N100D
VL: B15 VL with L51R
notes: also called hLIV-1 HE + hLIV-1 LA
B18: humanized BR2-14a antibody HELB (antibody, V domains shown)
VH: B7 VH with L27F, G61A, K63T, T97N, N100D
VL: B15 VL with F41Y, L51R
notes: also called hLIV-1 HE + hLIV-1 LB
B19: humanized BR2-14a antibody HELD (antibody, V domains shown)
VH: B7 VH with L27F, G61A, K63T, T97N, N100D
VL: B15 VL with R50K, L51R
notes: also called hLIV-1 HE + hLIV-1 LD
B20: humanized BR2-14a antibody HELF (antibody, V domains shown)
VH: B7 VH with L27F, G61A, K63T, T97N, N100D
VL: B15 VL with F41Y, Q42L, R44K, R50K
notes: also called hLIV-1 HE + hLIV-1 LF
B21: humanized BR2-14a antibody HELC (antibody, V domains shown)
VH: B7 VH with L27F, G61A, K63T, T97N, N100D
VL: B15 VL with Q42L, L51R
notes: also called hLIV-1 HE + hLIV-1 LC
B22: humanized BR2-14a antibody HBLE (antibody, V domains shown)
VH: B1 VH with F29I, T30E, G61A, K63T, S77N, N100D
VL: B15 VL
notes: also called hLIV-1 HB + hLIV-1 LE
B23: humanized BR2-14a antibody HCLA (antibody, V domains shown)
VH: B1 VH with G61A, K63T, R67K, V68A, R72A, N100D
VL: B15 VL with L51R
notes: also called hLIV-1 HC + hLIV-1 LA
B24: humanized BR2-14a antibody HCLC (antibody, V domains shown)
VH: B1 VH with G61A, K63T, R67K, V68A, R72A, N100D
VL: B15 VL with Q42L, L51R
notes: also called hLIV-1 HC + hLIV-1 LC
B25: humanized BR2-14a antibody HCLE (antibody, V domains shown)
VH: B1 VH with G61A, K63T, R67K, V68A, R72A, N100D
VL: B15 VL
notes: also called hLIV-1 HC + hLIV-1 LE
B26: humanized BR2-14a antibody HDLA (antibody, V domains shown)
VH: B1 VH with Y27F, G61A, K63T, A97N, R98V, N100D
VL: B15 VL with L51R
notes: also called hLIV-1 HD + hLIV-1 LA
B27: humanized BR2-14a antibody HDLC (antibody, V domains shown)
VH: B1 VH with Y27F, G61A, K63T, A97N, R98V, N100D
VL: B15 VL with Q42L, L51R
notes: also called hLIV-1 HD + hLIV-1 LC
B28: humanized BR2-14a antibody HDLE (antibody, V domains shown)
VH: B1 VH with Y27F, G61A, K63T, A97N, R98V, N100D
VL: B15 VL
notes: also called hLIV-1 HD + hLIV-1 LE

molecular target: T1, human LIV-1 (human, UniProt Q13433 29-755); experiment: competition flow cytometry, CHO cells expressing recombinant LIV-1, vs 5 nM AF647-labelled BR2-22a
T1 construct: also called hLIV-1; Q13433
T1 sequence: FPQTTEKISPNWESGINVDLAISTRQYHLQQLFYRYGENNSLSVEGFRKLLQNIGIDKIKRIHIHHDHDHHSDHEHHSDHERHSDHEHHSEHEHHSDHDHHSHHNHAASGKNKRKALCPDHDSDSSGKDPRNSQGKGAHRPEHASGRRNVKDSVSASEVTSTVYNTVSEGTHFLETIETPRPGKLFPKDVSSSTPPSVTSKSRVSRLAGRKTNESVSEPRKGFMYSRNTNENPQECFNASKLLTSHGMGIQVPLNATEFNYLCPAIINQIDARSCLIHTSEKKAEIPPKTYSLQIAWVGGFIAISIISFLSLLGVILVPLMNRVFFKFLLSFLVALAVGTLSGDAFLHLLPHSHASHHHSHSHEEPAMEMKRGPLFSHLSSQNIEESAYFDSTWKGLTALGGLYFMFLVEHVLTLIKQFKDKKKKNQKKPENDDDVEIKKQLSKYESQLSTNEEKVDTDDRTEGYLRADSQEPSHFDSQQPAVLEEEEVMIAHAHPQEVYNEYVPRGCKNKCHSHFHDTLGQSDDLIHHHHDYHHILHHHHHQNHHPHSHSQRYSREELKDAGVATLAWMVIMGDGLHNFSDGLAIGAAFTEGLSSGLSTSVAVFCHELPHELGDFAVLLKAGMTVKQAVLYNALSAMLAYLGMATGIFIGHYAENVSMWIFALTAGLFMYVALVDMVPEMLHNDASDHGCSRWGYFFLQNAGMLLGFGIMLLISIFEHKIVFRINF
Method: (§1) 1×10⁵ CHO cells expressing recombinant LIV-1 in PBS were aliquoted into each well of a 96-well v-bottom plates on ice. […] Cells were pelleted and washed 3 times with PBS. The cells were then pelleted and resuspended in 125 μL of PBS/BSA. Fluorescence was analyzed by flow cytometery, using percent of saturated fluorescent signal to determine percent labeled humanized BR2-22a antibody bound and to subsequently extrapolate the EC50 by fitting the data to a sigmoidal dose-response curve with variable slope.
All permutations of these five heavy chains and six light chains were then tested in a competition assay compared with BR2-22a (see FIG. 17).

Binder	EC50 [µg/mL]	binding result
B1	33.2	
B2	4.9	
B3	6.5	
B4		no binding (tested: 0.038 nM to 600 nM tested)
B5		no binding (tested: 0.038 nM to 600 nM tested)
B6	14.4	
B7	68.2	
B8	65.7	
B9	25.1	
B10	0.8	
B11	0.8	
B12	0.4	
B13	0.3	
B14	0.2	

molecular target: T1, human LIV-1; experiment: comparison of the EC50s of Table 3, CHO cells expressing human LIV-1
Method: as §1, with “recombinant human” for “recombinant”, “in PBS/BSA” for “in PBS”, “with PBS/BSA.” for “with PBS.”, “were” for “were then”, “flow cytometry,” for “flow cytometery,”, “labeled murine LIV-1 mAb” for “labeled humanized BR2-22a antibody”

Binder	fold better binding than the next humanized antibody HBLF [fold]
B15	≥ 2

molecular target: T1, human LIV-1; experiment: competition flow cytometry, CHO cells expressing human LIV-1, vs 5 nM AF647-labelled BR2-14a
Method: as §1, with “recombinant human” for “recombinant”, “in PBS/BSA” for “in PBS”, “with PBS/BSA.” for “with PBS.”, “were” for “were then”, “flow cytometry,” for “flow cytometery,”, “labeled murine LIV-1 mAb” for “labeled humanized BR2-22a antibody”

Binder	EC50 [µg/mL]	binding result
B16	1.4	
B17	12.5	
B18	173	
B19	24.2	
B15	0.3	
B20	1.5	
B21		no binding (tested: 0.038 nM to 600 nM tested)
B22		no binding (tested: 0.038 nM to 600 nM tested)
B23		no binding (tested: 0.038 nM to 600 nM tested)
B24		no binding (tested: 0.038 nM to 600 nM tested)
B25		no binding (tested: 0.038 nM to 600 nM tested)
B26		no binding (tested: 0.038 nM to 600 nM tested)
B27		no binding (tested: 0.038 nM to 600 nM tested)
B28		no binding (tested: 0.038 nM to 600 nM tested)
